The record followed here is the DeepSol protein solubility set.

The data set is described as follows: soluble on expression in E. coli; label from the status in PepcDB or PDB records.
For the sequence “MGSDKIHHHHHHMSKTIQAITNQIWSMANELRGNMDASEYKNYILAFMFYRYLSEHQERFLVEDEIISPAPGETVQDAYVREAVGNDLVEHLENTASHLGYAIEPEDTWARLVAKIDNSEIVASDYQTIFDHFNANVELNRDAMEDFRGVFNDINLGDSRLGNSTVARAKSLNSIVKLIDSIEYKNDEGKDILGEIYEYLIGQFAASAGKKGGEFYTPHQVSKILAKIVTLGLEKSDTSFSVYDPTMGSGSLLLTVRNELPQGQHIKFYGQEMNTTTYNLARMNLMMHQVSYSNMILNNADTLESDWPDGVDELGIDQPRSFDAVVANPPYSAKWDNRESKLKDPRFMEYGKLAPASKADFAFILHSLYHLNNTGTMAIVLPHGVLFRGAAEGHIRKLIIEKNYLDAVIGLPANLFYGTGIPTTILVFKKNRQTKDVFFIDASKEFEKGKNQNHLSDDMVEKIVETYHNRQSVDKYAHLASIEEIVENDYNLNIPRYVDTFEEEEEIDLGQVTQQLEQDRLEIRALEDKIRQQLKTLGVDF”, the “soluble on expression in E. coli” value was “not soluble”.
With “MSLVAMITTVVGSYPVVKKEETFLDKVKKVFGLYDEYKYAIERAVKDQVKAGVNIISDGQVRGDMVEIFTNNMYGFDGKRVVGRVEFIKPITLKDILYAKSIAKKLNPNVEIKGIITGPCTIASSVRVESCYSDNRDENLIYDIAKALRKEVEALKKHVPIIQIDEPILSTGMYDFDVARKAIDIIVDGLNIKFAMHVCGNVYNIIDELNKFNVDILDHEFASNKKNLVILESMEKKVGFGCVNTKVKKVESVEEIKSLIEEGIEILKNNEKLNKNLSDNILIDPDCGMRLLPIDVAFNKLKNMVEATKLIEGHHHHHH”, the “soluble on expression in E. coli” value was “soluble”.
The same measure for “GMSQRIGVIDMGTNTFHLLITDIVNDRPHTLVNEKSAVGLGKGGITKGFITEEAMDRALDTLKKFRVILDEHAVVHVIATGTSAVRSGSNKQVLIDRIKKEVNIDVEVIDGAREAELIFRGVQQAVPMEDHISLAMDIGGGSVEFIIGNKNEILWKQSFEIGGQRLIDRFHVHDPMREDDRVMMHNYFDEVLVPLEKAINTWRPTQLIGCSGTFDTLAEMNIQHHREKIALEKQTSYLLSLPDFNRLRKQLVASTRRERLAIAGMIELRADMVVVAICLIEHVLKLVSTNAITVSTYSLKEGVLYTMLDGVKVGS”: “soluble”.
Turning to “SFAAEITLTTPDNFALKADYYPSKNSVKPANNRAVLMLHQCNYNRTMYNNIGAQLAQQSIHALSLDFRGFGESISSEFNVADVRKLPQAERGKAWSNMSSHWPEDVQLAFDYLKEKVGNNGKVGIIGASCGGSQAINLAEKENISAISFFSSSQRDENIARYGKTLVDTPTLIIASEDDGRTFTSAQQLFSTAKNPSSKMISYKGSMHGYPLLASDKALETTIVTWFSNEL”, the “soluble on expression in E. coli” value is “not soluble”.
“MKTSPRSNRLHIALFGKRNSGKSSLINALTNQNAALVSDIAGTTTDPVYQPMEIHGIGPCVFIDTAGFDDEGELGSLRIERTLQAADKADIALMVCCDTELSEEQRWIELLKERNIPYLLVLNKADLLEKPDEVADKLEQQTGQHPLIVSAKEKTGIDSIRQSILHRLPELNEQPDIVGDLANEGDVVLLVMPQDIQAPKGRLILPQVQTLRELLDKKCITLSCTTDQLDNALKALSVPPSLIITDSQVFRTVYEKKPPQSRLTSFSVLFARYKGDIDYYTEGAYIIDQLTENSRVLIAEACTHAPLSEDIGRVKLPRMLRKRIGEKLHIDIVSGNDFPKDLNCYDLIIHCGACMFNRKHVLNRIVKAKAQGVPMTNYGIVIAYINGIPFH”: the “soluble on expression in E. coli” value is given as “soluble”.
With “MKTIHVSVVTPDGPVYEDDVEMVSVKAKSGELGILPGHIPLVAPLEISAARLKKGGKTQYIAVSGGFLEVRPDKVTILAQAAERAEDIDVLRAKAAKERAERRLQSQQDDIDFKRAELALKRAMNRLSVAEMK” the entry was “soluble”; with “MSLSFSTLMDKRERGSFDSQFLIAMPGLDDGNFARSVIYICAHSDAGAMGFIINRPQQITFTDILLHLKLVDSNDAIMLPNRTREFPIQCGGPVESGRGFVLHSDDYLSESSIPVSDDISLTATLDIVRAISNGRGPQKATMMLGYAGWGPGQLENEIANNGWLNCPAAEELIFDRGLDNKYERALALMGVDARMLSTDAGHAEGHHHHHH”, “not soluble”.
With “MTRKIDYLNYEEIQSLKNSLLHNIKHTYISRYMILTALYTGMRPGEIAVLTWSDIDFKNQTININKSYNHDKGRVDNYDSSEIDKSTKNTNSVRIIKVDKKFLDILSQLKQNDHEKIFIGKDGTIPTSNAVNKVWRKQLEKLNIDKPSFHFHSVRHTHVALLPFKGVPLYAISKRLGHANMSTTAKKYAYMLDELKQQVRLEHHHHHH” the entry was “not soluble”; with “MSLSDNAQHLYVNGNVGSSTEEITSVEYSKLLQLKLIDESLSFQWCNNYTVLSIYSMKETFARKTIYIHFPKPLLNKWFTAVVYESSETTSNLCFDVILKDGIFINLSLPIDFILSRTRQNEYPENWLKVLNPYDFSVRPPQCLFHVDNTFSVVFLKDGGLLGLKRIPLEILNDFELQPVLFNDSSYFQSFTRMFSKYDNHNSAVVSAELLNDKYLVTLTNDATIKIWDLTTYQLNAHFDLKEKNQQVNYGAAGKYMIICGSLLFVYLPAGNGSFQVIQLENTHSSRISFKPLNVNIPLNLSSYSIWSLIDIQLVKSSIVKQSGLNLVLLWKSNTVTKLQLLSFEDSLYSSYKWIDGNSTYLSDLLDDSDLITNGNMEKALLNLKSHYSQSTYDDAQKILNKNNVMVQINDPHNQDYLNNLEALLKELHKQYQEPSTLTILDDEIIVVNSLHMYHHSTYKLDSQLETIFFNIFEREGHHHHHH”, “soluble”.
As to “MKSIVEKLNLTKYQQLVILNRPQGEYLSEFASAAQQLPSEPVELIFAFVKTMAEFQEIVSMVIEGQHLVENGLLYVAYPKKGNKMYPTFVHRDEIFPTLQVNEADGYIKGSTLKFNRMVSLDETFTVVGMKNVLKKLAKNQTSSAVGDYVQYLPEIEALVQTEPAAAATFAALTPGYQKEWARYVFSAKRAETRKKRQTEMLVILKEGYKTKALYQQRKK”, the “soluble on expression in E. coli” value is listed as “not soluble”.
The same measure for “MQREDDPDAYDVIWASNGTLYFTPGFKYNTPPYPANQRVLATTDNIALTNYLRQEYNKLKESEGTPTLNDIINGFGFCYNDSSNGAGLDGTYLTVSGMLDNKYRLQLLGQYNGSNWLAYRTRNGDEQSWNPWHKVLTDNINAAISARHQYTSSSYPQIYGNGILQLGGDSRNEYGVVLRSNGTDEANAFRPSVNAGTTGHLYLGVANQKWRAVFAQNGTIQTSDRNAKHDITDLDPEKITAFIMGLKPSSYVFNDADSGRTHWGLISQDIEELFPQLGMTSMDFAGFIKSPKTEDYYEDVPETVTDEETGEEKTVTRKELKTRTVEGEYIYSLRYDEFIAPLICMVQRQQRQIEYLERRLSASESKEEAKLEHHHHHH”: “soluble”; for “GPGSMRCIGMMEELVAEGCSAIKSRHDKTNEELGDLRLQVHQEYLEAFRRLYKTLGQLVYKKEKRLEEIDRNIRTTHIQLEFAIETFDPNAKKHSDAKKELYKLRAQVEEELEMLKDKMAQALEMFGPTEDALNQAGIEFVHPAEEVEDGNLTRRSKMVEYRAHLAKQEEVKIAAEREELKRSKTLQSQQYRGKTVQQITQ”: “soluble”; for “MAGKCVFIVGAKRTAFGTFGGKLKGLSATDLGVVASQAALKHANVGADAVDHVIFGNVVASSRDGIYLSRHIGLKSGVPQNVGALTVNRLCGSGFQAVVNAAQAIKLGESNIVLAGGTENMSMVPFAVRDIRFGTALGKKYEFEDMLWDSLSDPYAKLAMGQTAEKLGAQYKVTRQEADEFALRSQTLWKKAQEAGVYKNEIVGITIKGRKGEESFEIDEHPRATTAESLAKLKPVFQKDGLVNAGNASGISDGAAALVVAGEDSVKSKNLKPLARVVAYSAVGCDPTIMGIGPAPAIREVLKKSGLKIGDIDIFEVNEAFAPQALAVQRELGIPMEKLNVNGGAIALGHPLAASGARISTHIVHELHRRNVKYGIGSACIGGGQGIAILFEKIEMKVLSKKKFFSEKNQKSANTSTQSRVSDANSPPPPPPHFTRSFLGL”: “soluble”.
The same measure for “MEELASLTKTADGKVLTSVTQKRNRADAATYIGKGKVEELKALVEELEADLLIFNDELSPSQLKSLATAIEVKMIDRTQLILDILAKRARTREGKLQIELAQLQYALPRLTGQGINLSRQGGGIGARGPGETKLETDRRHIRNRIHEINTQVSTVIRHRSRYRERRKKNGVLQIALVGYTNAGKSTWFNRLTSADSYEEDLLFATLDPMTRKMVLPSGYSVLLSDTVGFIQDLPTTLIAAFRSTLEEVKEADLILHLIDSSNEDYAGHEKTVLRLLEELEADDIPMLTAYNKRDQKLPDFYRPPEGITLWSVRNLRTTLQPLKKRFSAICAKNCLEHHHHHH”: “not soluble”; for “MFAIQPGLAEGGQFLGDPPPGLCQPELQPDSNSNFMASAKDANENWHGMPGRVEPILRRSSSESPSDNQAFQAPGSPEEGVRSPPEGAEIPGAEPEKMGGAGTVCSPLEDNGYASSSLSIDSRSSSPEPACGTPRGPGPPDPLLPSVAQAVQHLQVQERYKEQEKEKHHVHLVMYRRLALLQWIRGLQHQLIDQQARLQESFDTILDNRKELIRCLQQRAAPSRPQDQA”: “soluble”; for “MNEFMEPLDRISAETLGHYERNAEAFFEGTRDHDVSQNIAALLSHIRTEPPFTVLDFGCGPGRDLKAFTELGHRAVGLDGAFRFVEMARDYSGCEVWHQDFLKLDLPEEHFDGIFANATLFHVPSRELPRVLGELRAALKPEGVLFASNPRGRNEEGWNRGRYGVYHDLDTWRRFLTSAGFLELEHYYRPAGLPRDQQPWLASVWRRTLEHHHHHH”: “soluble”.
As for “YLELNEIESIIKDINTKAQKMHSGIHKRFYLFVALMTEFQALNGMRIGEMLAIQNEDIDFDNKSLNINGTIHWFHDESGGFGVKDTTKTESSYRTIGLSSRSCEILKKAILENKKDSKWNDGYLNRNFVFTNHKGNPMQTERFNKILREAAKDVGIDKEVSSHILRHSHISLLSQQGVSLKAIMDRVGHSDHRTTLSIYSHVTEQMDKDMMNKLEQVKLG”, the “soluble on expression in E. coli” value is “soluble”.
Consider “MGSDKIHHHHHHMFQSDLKLIVFQHGFFGERFVANLMNYPNSCPSYGACGIDGCTQCKEGLYNFSKNIIAVFSMPDPTTMPDFIENAEDFLPKVIPEADIAVAINLHPDVLAVMPEKLKGKVKALIVPVEEPRWCSPGLAKQIREKCDELGLEFAAPKPFCNLRPSEEHPTINRMIEEMRIGYPEFEIELLEDGKAYVRISRSQPCGCAYYIGVKLRGFDFSEVKEGKMRELWNVVAEAHHSYPCTASMERDNEYNETLLHVGGYIARHAVNRALGYEGDEDIPEHIKHIVL”, for which the “soluble on expression in E. coli” value is “not soluble”.
The same measure for “MSLNLKKAELHVHLEGTISPELAKKLAKRNQLTLPNGLIAPDEKSYLSRDFLDFLKVYDTLASVIKNPQDYYDITFDYLKSNAQEHAIYIEMMYSPDHAEQSSGIPSKEHLAAIQQAIDDAKSQFDIVGRIIITAVRHFGVEACERVAKQASIDKFPCVTGFGLGGDEAKFPPQLFTKAYQIAADSGLECTVHAGEFDSAKGMEEAMKTLPIKRIGHGVRVIDSPDIMAMVKDQGIALEVCPTSNIFLGLFKDMNSHPFPKLYEAGIKVSINSDDPPFMSTTLAQEYKRVQKAYGYNNDTMNNITRMAIEAAFVDEKTRKELLTKLEQEGHHHHHH”: “soluble”.
As for “MASANNQNKFLDPRERGNILNYLKVCLLLARAVRRMHAAGLCHSDLSYKNVLIDPEQGHACIIDVDGLVVPGKFPPDVVGTPDFIAPEVVKTSHLLKEDPQRILPNITTDRHALSVLIYMYLFYRHPLRGGKIHDMDDEVRDESLAMGERALFIEHPTDRSNAVKLNQVKPSSLPWADPQKVPYTIMGPYLTQLFEKAFIDGLHDPSKRPTADEWETALVKTVDLIQPCQNTACEQKWYVFSGKTKPVCPYCLEHHHHHH”, the “soluble on expression in E. coli” value is reported as “soluble”.
The same measure for “AVCDTPHERLTILYTKILDLLKHFPKHAAYRKYTEQITSEKLELVKLEPDVKKLENLLQGG”: “soluble”.
